According to the domain aggregation screens of Martell et al. (2025):

Assay: soluble fraction after stress (log2 fold change); higher = more stays soluble; pooled small domains, quantitative proteomics
Settings: stress: 75 degC
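Note: 20 min heating vs room temperature control held 20 min.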

Sequence: HMEGEVVESPLVGVAYLASGPDKPAFVQVGDSVSKGQTLLIIEAMKVMNEVPAPRDGIVTEILV
- soluble fraction (log2): 0.1

Sequence: HMRKDRKVLMERGRHIFNDLLEKEGIVATNQLMTKLLASHHLRNRDELYLMLANDDISLSSKEIKDLS
- soluble fraction (log2): -0.409

Sequence: HMDPEIADAVNTIKKYLESHYSEVITRKKIEELVHLNQDHINREFKKQTGYTLMEYVQHYRILMAKKMLRV
- soluble fraction (log2): -0.576

Sequence: HMSGLEDIKKKILEDAGIKKGSVKFVKVDKDYDDGIWKYEIDFVYDGKEYEYEIEVETGKILSRKTEKSD
- soluble fraction (log2): 0.00588

Sequence: HMDVLFGNRLRQLLDERNISQAHFADRIGVSRSRMNNYVAQRSEPDYATLIRIANTLDTSIDFLLGKS
- soluble fraction (log2): -2.36

Sequence: HMGVMNEYEELRDRYLTGQIWKIGDLVEAKGIEGKIIQRGTNYITFNDSQGKVHKAWLHEIKV
- soluble fraction (log2): -0.00315

Sequence: HMEGIWAVFYDGKPINLKSSSLVANYPGPKYKKVSFSNPGHAENLAKKLNAQHNTDKFGVYLLKSGDKFS
- soluble fraction (log2): -0.113

Sequence: HMPTPASGSSGYINATNVNFRTGPATSYKSISKLAKNTAVTILGTSGNWYKVTVGSLGKNGYVFATYVTVS
- soluble fraction (log2): -2.23

Sequence: HMRKPLDQSWVPDDDAMKILTNSGIEKEFIKNEIPEFILYWSDKGEISDSWNTKFISQIRRQWAKNQ
- soluble fraction (log2): -0.0241

Sequence: HMARRTPPPTVSELNALLRVAAPHIQRVILLGIYTGARIGPSELFSLKWDDVDLTRGVIGIRL
- soluble fraction (log2): -0.0659

Sequence: HMRPHDDHLREQLLGIATETIARTGVEGLSLRTLATDAGTSTSAVYQLFGSRAALLDAVYLRVLE
- soluble fraction (log2): -1.47

Sequence: HMNKPLFVYPNPVHQGKINLSKATNFMVVDLLGQTVNKTNYGKDFSIDNLPNGVYFIKTTEGEIIKFMK
- soluble fraction (log2): -0.701

Sequence: HMVHSEDLQDHKYVSQLGEVFLKENPNYENIKKSWGDHMVVIKKFGRYPHRNKILNRKSTPEELEFLKG
- soluble fraction (log2): -0.0435

Sequence: HMTYPGSIALVNPKHEAFVQHYVATSGSRGQAAKLAGVTTTTARNLLQDVEATARIRYLNAQQFQ
- soluble fraction (log2): -0.12

Sequence: HMENSMDTDWDVSGVDPSQYRLLFSTLGAIAGVKDVGLNPDGLKIIHTPEALPAIKQAFDANNLKLKMRTN
- soluble fraction (log2): -0.0945

Sequence: HMTYVSVSNYIGTNVDKAKGELESQGLVVLLEEQKTEDKSQDGMVLKQTIEGGTKVSSGSRITLIYGRYT
- soluble fraction (log2): -0.0441

Sequence: HMNKTQLQIEDEVLKPLIAEIFSKSKGRFGARKIRSKLMGLGYTASERRILRLMKELGLSSAG
- soluble fraction (log2): -1.19

Sequence: HMVSDAWITGKVKSQLLADDVTPGMKIDVDTEDRIVSLKGTVPSLTARNEAIRIASHTKGVRTVDADELIV
- soluble fraction (log2): 0.17

Sequence: HMQGNGKVATELLKDIIASDNLYINAMRMLVMHYNSKGTNQVEMVKLLHNILDLVPDDEYANEILKSAKKA
- soluble fraction (log2): -0.0872

Sequence: HMEYYDDEELDRFRGVEADAYDEDAVNEFRDVLYTLQEIEVAGWLRSLQLRAINLPDELKDEAFLI
- soluble fraction (log2): -1.48

Sequence: HMKKGRIGSIIQYVREHPGVSSSEIITGLGLDISPATIRRDLTLLVAENKLSVEGQNKGTKYFVSPTYDMF
- soluble fraction (log2): -1.22

Sequence: HMQERNYIVRRGDTLWDLAKTYYGSGTKYTVIYDANRDNIEAEAKRRGKQSSNGGYWIYPGTELTI
- soluble fraction (log2): -0.348

Sequence: HMNLQAYQSVLDKLNEEYGTTFRFPTEEELHEVGLTNTVDPRTATVSATEFEKYMRPIAERISQANL
- soluble fraction (log2): -0.205

Sequence: HMITNLEPFKDFVRGFSGLHLEGVGQEKLAAALDERIRKTGSANERDYLQLIMEDVAERLKLINILT
- soluble fraction (log2): -0.627

Sequence: HMFLPFFDNLRKAGVPVSLREFLGFLEGMKAGLATYDIDAFYFLARTTMVKDERNLDKFDRAFSATFKG
- soluble fraction (log2): -1.02

Sequence: HMGDTIGEQKAKEIALEHAGLKSSDVTFIRAVLEYDDRNWEYDVEFYDADTYTEYDYEIDAHTGKILSFDH
- soluble fraction (log2): 0.351

Sequence: HMRELSDFEKLLFTTTLERKMINLAMLLTRSNKADSKDLIQDSYLKAIENQVQFNGNNIDAWVITILKNTF
- soluble fraction (log2): -0.352

Sequence: HMKMNFNEEEQKLLSEANVLVETNKTYTDDEVKGFSNKIVEHIMTFSKTDIPKVKSKFDPILFKI
- soluble fraction (log2): -0.359

Sequence: HMGKSETALELIKRGHRLIADDAVEITRIGSTLSGTAPELIRNYLEVRGVGVIDVEKLFGVGAVQDSTQI
- soluble fraction (log2): 0.0405

Sequence: HMGVSEIGSPAWMESKLVTLASYEGSLDGLRTLWGGVAQHRARIPVESWDRLFAAKEEGKARLVKLGRT
- soluble fraction (log2): -1.25
